Tests used:
[1] = target: T1, full-length YU2 gp120 (HIV-1 strain YU2, UniProt P35961 32-498); assay: SPR (Biacore)
T1 construct: domain: full-length gp120; also called wild-type gp120

[2] = target: T1, full-length YU2 gp120; assay: SPR (Biacore), 1:1 Langmuir fit

B1: VRC03 (antibody, V domains shown)
VH: QVQLVQSGAVIKTPGSSVKISCRASGYNFRDYSIHWVRLIPDKGFEWIGWIKPLWGAVSYARQLQGRVSMTRQLSQDPDDPDWGVAYMEFSGLTPADTAEYFCVRRGSCDYCGDFPWQYWGQGTVVVVSS
VL: EIVLTQSPGILSLSPGETATLFCKASQGGNAMTWYQKRRGQVPRLLIYDTSRRASGVPDRFVGSGSGTDFFLTINKLDREDFAVYYCQQFEFFGLGSELEVH
notes: also called mAb VRC03
Which results are given for B1?
fold lower affinity than VRC01 and VRC02 [1]: ~10 fold; Kd [2]: 73.1 nM

— patent publication US20160009789A1 (US Dept. of Health and Human Services, published 2016)
